Laboratory results as given in PMC6750898.

Key:
[1] = molecular target: capsid associated protein P30 of bacteriophage PR772 (bacteriophage PR772); experiment: cryo-EM structure; icosahedrally averaged (I4) single-particle reconstruction of purified wild-type PR772 virions; overall 2.75 Å, capsid 2.3 Å; de-novo model of the asymmetric unit; difference density map of the vertex region
[2] = molecular target: host-recognition protein P5 of bacteriophage PR772 (bacteriophage PR772); experiment: cryo-EM structure; localized asymmetric (C1) reconstruction of the five-fold vertex after capsid signal subtraction (about 10 Å for the class with P2; 4.41 Å for the penton) and focused classification of the penton base (4.25 Å); models fitted as rigid bodies; purified wild-type virions
[3] = molecular target: penton protein P31 of bacteriophage PR772 (bacteriophage PR772); experiment: as above
[4] = molecular target: major capsid protein P3 of bacteriophage PR772 (bacteriophage PR772); experiment: cryo-EM structure; icosahedrally averaged (I4) single-particle reconstruction of purified wild-type PR772 virions; overall 2.75 Å, capsid 2.3 Å; de-novo model of the asymmetric unit; difference density map of the vertex region

Substance “capsid associated protein P30 of bacteriophage PR772 (natural protein)” has a stoichiometry N [1] of 2.

Work on “host-recognition protein P5 of bacteriophage PR772 (natural protein)” yielded a stoichiometry N [2] of 3, a stoichiometry N (copies of P5 in the penton base) [3] of 3 and a stoichiometry N (copies of P31 in the penton base) [3] of 2.

“major capsid protein P3 of bacteriophage PR772 (natural protein)” gave a stoichiometry N [4] of 3.

For “receptor-binding protein P2 of bacteriophage PR772 (natural protein)”, the percent of vertex sub-particles with a density representing P2 [2] was 16%.
